Legend:
Assay in all cases: fluorescence polarization
[1] = target: RBM25 PWI domain + flanking basic region WT (Homo sapiens, UniProt P49756 734-843)
PWI K744A = PWI K744A (Homo sapiens, UniProt P49756 734-843, K744A)
PWI K837A+K838A = PWI K837A+K838A (Homo sapiens, UniProt P49756 734-843, K837A;K838A)
PWI K777A+K778A = PWI K777A+K778A (Homo sapiens, UniProt P49756 734-843, K777A;K778A)
PWI K825A+R828A = PWI K825A+R828A (Homo sapiens, UniProt P49756 734-843, K825A;R828A)
PWI R769A+R770A = PWI R769A+R770A (Homo sapiens, UniProt P49756 734-843, R769A;R770A)
PWI K734A+R735A+K736A = PWI K734A+R735A+K736A (Homo sapiens, UniProt P49756 734-843, K734A;R735A;K736A)
PWI ΔHb = PWI ΔHb (Homo sapiens, UniProt P49756 746-843, del734-745)
PWI H737A+K739A = PWI H737A+K739A (Homo sapiens, UniProt P49756 734-843, H737A;K739A)
Chain of PWI H737A+K739A (P49756 734-843 H737A/K739A): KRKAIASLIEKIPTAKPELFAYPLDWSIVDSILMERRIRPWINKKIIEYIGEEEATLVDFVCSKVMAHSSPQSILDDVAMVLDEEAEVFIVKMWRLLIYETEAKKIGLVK

Chain of RBM25 PWI domain + flanking basic region WT (P49756 734-843): as the sequence (P49756 734-843 H737A/K739A) above, with A4H, A6K counted along it
Chain of PWI K777A+K778A (P49756 734-843 K777A/K778A): as the sequence (P49756 734-843 H737A/K739A) above, with A4H, A6K, K44A, K45A counted along it
Chain of PWI K825A+R828A (P49756 734-843 K825A/R828A): as the sequence (P49756 734-843 H737A/K739A) above, with A4H, A6K, K92A, R95A counted along it
Chain of PWI ΔHb (P49756 746-843, stated change not applied): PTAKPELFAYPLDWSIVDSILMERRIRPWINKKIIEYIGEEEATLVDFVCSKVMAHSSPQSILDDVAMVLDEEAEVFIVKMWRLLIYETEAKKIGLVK
Chain of PWI K837A+K838A (P49756 734-843 K837A/K838A): as the sequence (P49756 734-843 H737A/K739A) above, with A4H, A6K, K104A, K105A counted along it
Chain of PWI K734A+R735A+K736A (P49756 734-843 K734A/R735A/K736A): as the sequence (P49756 734-843 H737A/K739A) above, with K1A, R2A, K3A, A4H, A6K counted along it
Chain of PWI R769A+R770A (P49756 734-843 R769A/R770A): as the sequence (P49756 734-843 H737A/K739A) above, with A4H, A6K, R36A, R37A counted along it
Chain of PWI K744A (P49756 734-843 K744A): as the sequence (P49756 734-843 H737A/K739A) above, with A4H, A6K, K11A counted along it

Binder: AUCGGGCA (ssRNA) [ssRNA]
- Kd [1]: 11.3 ± 1 µM
- Kd (PWI K744A): 19.9 ± 4.4 µM
- Kd (PWI K837A+K838A): 15.7 ± 2.1 µM
- Kd (PWI K777A+K778A): 156 ± 29.4 µM
- Kd (PWI K825A+R828A): 106 ± 17.3 µM
- Kd (PWI R769A+R770A): 32.1 ± 1.4 µM
- Kd (PWI K734A+R735A+K736A): 183 ± 44.7 µM
- binding result (PWI ΔHb): no binding
- Kd (PWI H737A+K739A): 61.6 ± 9.3 µM

B1: dsRNA (dsRNA)
RNA 1: AUCGGGCA
RNA 2: UGCCCGAU
- Kd [1]: ~8.2 µM

Binder: CCTTACAGCAAA (ssDNA) [ssDNA]
- Kd [1]: ~4.4 µM

B2: dsDNA (dsDNA)
DNA 1: CCTTACAGCAAA
DNA 2: TTTGCTGTAAGG
- Kd [1]: ~6.7 µM
- Kd (PWI K744A): ~23.6 µM
- Kd (PWI K837A+K838A): ~40.4 µM
- Kd (PWI K777A+K778A): ~160 µM
- Kd (PWI K825A+R828A): ~106 µM
- Kd (PWI R769A+R770A): ~46 µM
- Kd (PWI K734A+R735A+K736A): ~194 µM
- binding result (PWI ΔHb): no binding
- Kd (PWI H737A+K739A): ~57 µM
